Results on 2 molecules are retold here after paper PMC3020727 (The Journal of Biological Chemistry, 2010).

Test [1] has as its target T1, RbAp48 (full length, residues 1-425), purified recombinant (UniProt Q09028 1-425). The test is described as follows: ITC. (In general: In ITC the heat of successive injections is recorded.)
Test [2] concerns the target T1, RbAp48 (full length, residues 1-425), …. The test can be described thus: SPR.

No end group written: not given here. *: point of attachment. Biotin = O=C1N[C@H]2[C@H](CS[C@H]2CCCCC(=O)*)N1

T1 sequence (Q09028 whole entry, the tested form may be a part): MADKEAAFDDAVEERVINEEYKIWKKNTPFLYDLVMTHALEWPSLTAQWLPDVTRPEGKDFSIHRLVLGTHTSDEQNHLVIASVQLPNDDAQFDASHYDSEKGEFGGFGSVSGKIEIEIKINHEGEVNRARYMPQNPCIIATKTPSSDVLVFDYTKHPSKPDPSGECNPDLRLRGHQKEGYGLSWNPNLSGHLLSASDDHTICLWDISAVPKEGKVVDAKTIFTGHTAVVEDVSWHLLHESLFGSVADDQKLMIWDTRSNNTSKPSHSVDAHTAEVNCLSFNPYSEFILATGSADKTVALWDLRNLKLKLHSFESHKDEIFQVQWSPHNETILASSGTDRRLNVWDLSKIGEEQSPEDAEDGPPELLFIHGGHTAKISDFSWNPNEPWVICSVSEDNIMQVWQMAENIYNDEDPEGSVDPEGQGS

Take MSRRKQSNPRQI [FOG-1-(1-12) peptide]: in test [1], the Ka worked out at 1.54e+06 M⁻¹.
Regarding Biotin-MSRRKQSNPRQIKRS [biotinylated FOG-1-(1-15) peptide], the Ka in test [2] amounted to 1.36e+06 M⁻¹.
